This passage reports Kd results from publication doi:10.1101/2020.02.21.959445.

Holding throughout (assay): EMSA
One data set addresses T1, ME47/AA (designed (human Max/human E47), R12A;C29A).
T1 chain: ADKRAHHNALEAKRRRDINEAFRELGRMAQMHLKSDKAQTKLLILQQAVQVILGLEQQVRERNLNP

For another data set, the target named is T2, MEF/LA (designed (human Max/human E47/FosW), four FosW heptad Leu to Ala (see sequence)).
T2 chain: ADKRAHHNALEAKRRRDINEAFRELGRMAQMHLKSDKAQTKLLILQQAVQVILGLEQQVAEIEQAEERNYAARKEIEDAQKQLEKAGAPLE

The next data set addresses T3, MEF+1 (designed (human Max/human E47/FosW)).
T3 chain: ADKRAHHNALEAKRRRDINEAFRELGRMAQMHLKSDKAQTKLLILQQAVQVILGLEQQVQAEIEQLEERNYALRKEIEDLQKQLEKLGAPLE

A further data set concerns the target T4, MEF-1 (designed (human Max/human E47/FosW)).
T4 chain: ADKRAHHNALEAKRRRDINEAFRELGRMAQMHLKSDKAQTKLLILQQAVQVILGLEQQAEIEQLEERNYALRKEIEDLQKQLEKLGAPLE

The target of a further data set is T5, MEF (designed (human Max/human E47/FosW)).
T5 chain: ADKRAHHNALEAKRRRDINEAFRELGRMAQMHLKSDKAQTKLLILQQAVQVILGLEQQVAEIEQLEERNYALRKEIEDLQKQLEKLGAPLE

B1: NS DNA (nonspecific; TCCAAG in place of CACGTG) (dsDNA)
DNA 1: TGCAGGAGTTCCAAGGCGAAGGTT
DNA 2: AACCTTCGCCTTGGAACTCCTGCA
A word on the Kd: it is the free concentration of one partner at which half of the binding sites on the other are occupied at equilibrium, for simple one-to-one binding. A lower Kd goes with a tighter complex. For B1, the Kd stood at 87.5 ± 5.1 nM with ME47/AA; 44.5 ± 6 nM in the data set with MEF/LA; 65 ± 7 nM with MEF+1; 111 ± 18 nM with MEF-1; 96 ± 22 nM in the data set with MEF.

B2: AT E-box (-7 AT E-box) (dsDNA)
DNA 1: GCGGCCGCTGCAGGAACCACGTGGTGGAATTCTTTACA
DNA 2: TGTAAAGAATTCCACCACGTGGTTCCTGCAGCGGCCGC
With B2, the affinity with ME47/AA, expressed as Kd, was 28.5 ± 2.3 nM.

B3: E-box (-7 GC E-box) (dsDNA)
DNA 1: GCGGCCGCTGCAGGAGCCACGTGCGGGAATTCTTTACA
DNA 2: TGTAAAGAATTCCCGCACGTGGCTCCTGCAGCGGCCGC
As for B3, the Kd with ME47/AA worked out at 27.7 ± 1.7 nM; in the data set with MEF/LA, 10.7 ± 1.5 nM; with MEF+1, 30 ± 4 nM; in the data set with MEF-1 it was 59 ± 5 nM; in the data set with MEF, 7.8 ± 0.6 nM.
